Measured values taken from US20250074972A1, “ANTIBODIES AND METHODS FOR GENERATING THE SAME” (priority 2021, published 2025).
“Also recorded” adds a separate entry of the source.

B1: 1B11 scAb: anti-Pga31 single chain antibody from naive human library; amino acid sequence SEQ ID NO: 2 (protein)
scFv: EVQLLESGGGVVQPGRSLRLSCAASGFTFSSYGMHWVRQAPGKGLEWVAVISYDGSNKYYADSVKGRFTISRDNSKNTLYLQMNSLRAEDTAVYYCARDRSGWGSLDYWGQGTLVTVSSLEGGGGSGGGGSGGGASDIVMTQSPDSLAVSLGERATINCKSSQNVLYSSNNKNYLAWYQQKSGQPPKLLIYWASTRESGVPDRFSGSGSGTDFTLTISSLQAEDVAVYYCQQYYSTPRTFGQGTKVEIK
modifications: 1B11 Amino Acid Sequence

Assays:
[1] = test system: Candida albicans strain SC5314; test: Mouse model of disseminated Candidiasis, Study 3; assay type: in vivo; conditions: 1 mg/kg at 24 h and 72 h post-infection; day 7
Experimental: In study 3, the protective effect of mAb 1B11 as a prophylactic agent with single dosing 3 hours before infection followed by two dosing 24 h and 72 h post infection was investigated.
In addition, a treatment only arm with the administration of 1B11 mAb 24 h and 72 h post infection was also included.
Animals were allocated into four main groups as explained below. The treatment dose of 1B11 mAb was 12.5 mg/kg per mouse. All treatments were administered intraperitoneally (IP) in 200 μl saline.
The study plan is shown in FIG. 19 and is as follows: • Group 1—Pre-treatment with 1B11 mAb at 3 h before infection, followed by treatment at 24 h and 72 h post-infection. • Group 2—Injected with saline at 3 h before infection, treatment with 1B11 at 24 h and 72 h post-infection. • Group 3—Saline injections at all three time points • Group 4—caspofungin treatment (1 mg/kg) at 24 h and 72 h post-infection
Mice were monitored and weighed every day and were culled on day 7 post-infection and the kidneys removed aseptically. Kidneys were split […], with one half of each kidney used to determine burdens, one half frozen on OCT and one half fixed in formalin at 4° C. Burdens were determined by plating out kidney homogenate and counting colonies after 48 h growth at 30° C. Statistical comparisons were carried out using IBM SPSS version 24. […]

[2] = test system: C. albicans (SC5314); test: Galleria mellonella infection model, C. albicans; assay type: in vivo, Candida albicans; conditions: for survival of larvae: Galleria mellonella infected with 5×10^5 C. albicans, monitored 60 h, Mantel-Cox p<0.0001
Experimental: (§1) Galleria mellonella is a reliable infection model to test and compare antibody efficacy by monitoring the survival of the larvae. Ten Galleria mellonella larvae (Livefoods Direct Ltd, Sheffield, UK) with bodyweights of =250-300 mg were used for each test group and standardised inoculum of 5×10^5 C. albicans and 5×10^7 C. auris yeast cells/larvae were injected using Hamilton syringe (Cole-Parmer, UK, washed twice with 100% ethanol and sterile dH2O between every 5 injections) via the last pro-leg. Two control groups, one with no injection and the second with PBS injection were also set up. After injection, larvae were incubated for 48-60 h at 37° C. Survival was monitored first after 24 h and then every 6 h. A Kaplan-Meier plot was generated to assess the survival of larvae infected with C. albicans and C. auris, monitoring the survival rate for 60 h (FIG. 8).
(§2) In addition, the fungal burden of various test groups was calculated by measuring the number of colony forming units (CFU) as an indicator of fungal growth within the larvae and early fungicidal/fungistatic activity of the antibody. […] (FIG. 9A).

[3] = test system: Candida albicans strain SC5314; test: Mouse model of disseminated Candidiasis, Study 1; assay type: in vivo; conditions: caspofungin 1 mg/kg at 24 h post-infection; p=0.004
Experimental: In study 1, the protective effect of mAb 1B11 as a prophylactic agent with single dosing before and after the administration of fungal inoculum was investigated. Female BALB/c mice, 7-9 weeks old were purchased from Envigo Ltd. and randomly assigned to groups of 6 for treatment and control. The Candida albicans inoculum was prepared by growing strain SC5314 in NGY medium for 16 h, shaking at 30° C. Cells were harvested and washed with saline, then counted and resuspended in saline to provide an inoculum of approx. 2×10^4 CFU/g mouse body weight in 100 μl. Mice were infected intravenously.
Actual inoculum level was determined by plating dilutions of the inoculum on Sabouraud dextrose agar and incubating overnight at 30° C. It was determined to be 2.2×10^4 CFU/g mouse body weight.
Animals were allocated into four main groups as explained below. The treatment dose of 1B11 mAb was 15 mg/kg per mouse. All treatments were administered intraperitoneally (IP) in 150 μl saline. […]
Mice were monitored and weighed every day and were culled on day 4 post-infection and the kidneys removed aseptically. […] Burdens were determined by plating out kidney homogenate and counting colonies after 48 h growth at 30° C. […]

[4] = test system: C. auris (1716); test: Galleria mellonella infection model, C. auris; assay type: in vivo, Candida auris; conditions: for survival of larvae: Galleria mellonella infected with 5×10^7 C. auris, monitored 60 h, versus non-treated, Mantel-Cox p<0.0001
Experimental: as §1, §2

[5] = test system: total cell lysates of WT C. albicans (SC5314); test: Pga31 scAbs binding ELISA on total cell lysates of WT C. albicans treated with or without caspofungin; set-up: species or system Candida albicans; conditions: absorbance 450 nm, cells treated or untreated with 0.032 μg/ml caspofungin
Experimental: (§3) The reaction was stopped using 1 M H2SO4 and the absorbance values measured using a microplate reader at absorbance 450 nm. For total cell lysate ELISA, C. albicans WT and pga31 single mutant strain overnight cultures were inoculated into fresh YPD at OD600 nm of 0.1-0.2, grown for 3-4 h at 30° C. until OD of 0.5-0.6 was reached and then treated with caspofungin (0.032 μg/ml) for 90 min. After 90 min growth cells were harvested, centrifuged for 5 min at 4000 rpm and washed and cell lysate was prepared. This was used to coat ELISA plates at 37° C. for 1 h, plates were washed and blocked with 2% MPBS as before, followed by the two-fold serial dilution of scAb samples.

[6] = test system: cell lysates of pga314 mutant strain; test: Pga31 scAbs binding ELISA on cell lysates of pga31 mutant strain; set-up: species or system Candida albicans; conditions: with or without 0.032 μg/ml caspofungin
Experimental: as §3

[7] = test system: C. albicans (SC3514); test: Biofilm formation assay (crystal violet), C. albicans; assay type: cell-based, Candida albicans
Experimental: (§4) The ability of 1B11 scAb in preventing the formation of biofilm in C. albicans ([…]) and C. auris (1716) was tested. The growth medium used were RPMI and 20% Foetal Calf Serum (FCS) and the assay was carried out in 96 well microtitre plates. Test antibody 1B11 scAb at a starting concentration of 160 μg/ml was double diluted down the plate and the top row served as positive control with cells only. The final number of cells added to each well was kept constant at 1×10^5/ml and the plate was incubated at 37° C. for 24 h. Following incubation, the biofilm plate was gently washed two times with PBS to remove non-adhering cells and allowed to dry at room temperature overnight. The biofilm was stained with 100 μl 0.05% crystal violet for 20 min followed by washing with Millipore Q water and 200 ul of 100% ethanol. Contents of each well were transferred to a new plate and absorbance was read at 570 nm wavelength.

[8] = test system: C. auris (1716); test: Biofilm formation assay (crystal violet), C. auris; assay type: cell-based, Candida auris
Experimental: as §4

[9] = at higher concentrations (start 160 μg/ml, double diluted), 24 h incubation

Molecule	kidney burdens, caspofungin group compared to saline treated group [1]	survival of larvae [2]	kidney organ burdens compared to saline treated mice [3]	fungal burden (colony forming units) in larvae ([4]; 4 h and 24 h incubation, versus non-treatment group)	survival of larvae [4]	survival of larvae ([4]; listed as anti-Pga31 antibody)	scAb binding to lysates of caspofungin treated versus untreated cells [5]	scAb binding to mutant strain lysate [6]	fungal burden (colony forming units) in larvae ([2]; versus non-treatment group, statistically significant in 24 h group)	C. albicans growth under biofilm-inducing conditions ([7]; 24 h, especially in 20% foetal calf serum)	biofilm biomass (crystal violet) compared to the control ([7]; RPMI conditions, T test, p<0.0001)	biofilm formation [7, 9]	C. auris growth under biofilm-inducing conditions ([8]; 24 h, RPMI or 20% FCS)	biofilm formation [8, 9]	biofilm biomass (crystal violet) compared to the control ([8]; both RPMI and 20% FCS conditions, T-test, p<0.0001, p<0.0004)
CC[C@H](C)C[C@H](C)CCCCCCCCC(=O)N[C@H]1C[C@@H](O)[C@@H](NCCN)NC(=O)[C@@H]2[C@@H](O)CCN2C(=O)[C@H]([C@H](O)CCN)NC(=O)[C@H]([C@H](O)[C@@H](O)c2ccc(O)cc2)NC(=O)[C@@H]2C[C@@H](O)CN2C(=O)[C@H]([C@@H](C)O)NC1=O [caspofungin, reference compound]	highly significant difference	significant survival percentage; also recorded: only had marginal effect	significant decrease												
B1		significant survival percentage		inhibited; also recorded: notable inhibition of growth	significant survival percentage	survived significantly more	increase in scAb binding	lack of scAb binding	lower level of growth inhibition	significantly inhibited	significantly different	able to inhibit biofilm formation	did not significantly inhibit C. auris growth under biofilm-inducing conditions except at the highest concentration tested	able to inhibit biofilm formation	significantly different
